# From the RNAGym collection of RNA variant scans (doi:10.1093/molbev/msab373)
# B1: Azoarcus group I ribozyme (parent)
# chain: GUGCCUUGCGCCGGGAAACCACGCAAGGGAUGGUGUCAAAUUCGGCGAAACCUAAGCGCCCGCCCGGGCGUAUGGCAACGCCGAGCCAAGCUUCGGCGCCUGCGCCGAUGAAGGUGUAGAGACUAGACGGCACCCACCUAAGGCAAACGCUAUGGUGAAGGCAUAGUCCAGGGAGUGGCGAAAGUCACACAAACCGG
# Variants of: B1
# Experiment: reverse-splicing fitness (ratio to wild type); higher = more active; in vitro selection; Mg2+ level not given
# In short: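 An in vitro group I ribozyme library with randomized positions was T7-transcribed and gel-purified. In triplicate, 10 pmol RNA in EPPS pH 7.5 was reacted with 50 pmoles of a 30-nt RNA substrate for 1 h at 37 °C across several added MgCl2 levels (1–48 mM), then stopped with EDTA. Products were reverse transcribed from a substrate-complementary primer, PCR-amplified and sequenced (HiSeq 4000). Fitness is a variant's read proportion after selection over that before, normalised to wild type.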
row,Variant,reverse-splicing fitness
1,GUGCCUUGCGCCGGGAAACCACGCAAGGGAUGGUGUCAAAUUCGGCGAAACCUAAGCGCCCGCCCGGGCGUAUGGCAACGCGGAGCCAAGCUUCGGCGCCUGCGCCGAUGAAGGUGUAGUGACUAGACGGCACCCACCUAAGGCAAACGAUAUGGUGAAGGCAUAGUCCAGGGAGAGGCGAAAGUCACACAAACCGG [C82G A120U C150A U176A],0.0102
2,GUGCCUUGCGCCGGGAAACCACGCAAGGGAUGGUGUCAAAUUCGGCGAAACCUAAGCGCCCGCCCGGGCGUAUGGCAACGCGGAGCCAAGCUUCGGCGCCUGCGCCGAUGAAGGUGUAGUGACUAGACGGCACCCACCUAAGGCAAACGAUAUGGUGAAGGCAUAGUCCAGGGAGCGGCGAAAGUCACACAAACCGG [C82G A120U C150A U176C],0.0129
3,GUGCCUUGCGCCGGGAAACCACGCAAGGGAUGGUGUCAAAUUCGGCGAAACCUAAGCGCCCGCCCGGGCGUAUGGCAACGCGGAGCCAAGCUUCGGCGCCUGCGCCGAUGAAGGUGUAGUGACUAGACGGCACCCACCUAAGGCAAACGAUAUGGUGAAGGCAUAGUCCAGGGAGGGGCGAAAGUCACACAAACCGG [C82G A120U C150A U176G],0.00569
4,GUGCCUUGCGCCGGGAAACCACGCAAGGGAUGGUGUCAAAUUCGGCGAAACCUAAGCGCCCGCCCGGGCGUAUGGCAACGCGGAGCCAAGCUUCGGCGCCUGCGCCGAUGAAGGUGUAGUGACUAGACGGCACCCACCUAAGGCAAACGAUAUGGUGAAGGCAUAGUCAAGGGAGGGGCGAAAGUCACACAAACCGG [C82G A120U C150A C169A U176G],0.00205
5,GUGCCUUGCGCCGGGAAACCACGCAAGGGAUGGUGUCAAAUUCGGCGAAACCUAAGCGCCCGCCCGGGCGUAUGGCAACGCGGAGCCAAGCUUCGGCGCCUGCGCCGAUGAAGGUGUAGUGACUAGACGGCACCCACCUAAGGCAAACGAUAUGGUGAAGGCAUAGUCAAGGGAGCGGCGAAAGUCACACAAACCGG [C82G A120U C150A C169A U176C],0.0035
6,GUGCCUUGCGCCGGGAAACCACGCAAGGGAUGGUGUCAAAUUCGGCGAAACCUAAGCGCCCGCCCGGGCGUAUGGCAACGCGGAGCCAAGCUUCGGCGCCUGCGCCGAUGAAGGUGUAGUGACUAGACGGCACCCACCUAAGGCAAACGAUAUGGUGAAGGCAUAGUCAAGGGAGAGGCGAAAGUCACACAAACCGG [C82G A120U C150A C169A U176A],0.00432
7,GUGCCUUGCGCCGGGAAACCACGCAAGGGAUGGUGUCAAAUUCGGCGAAACCUAAGCGCCCGCCCGGGCGUAUGGCAACGCGGAGCCAAGCUUCGGCGCCUGCGCCGAUGAAGGUGUAGUGACUAGACGGCACCCACCUAAGGCAAACGGUAUGGUGAAGGCAUAGUCGAGGGAGUGGCGAAAGUCACACAAACCGG [C82G A120U C150G C169G],0.0053
8,GUGCCUUGCGCCGGGAAACCACGCAAGGGAUGGUGUCAAAUUCGGCGAAACCUAAGCGCCCGCCCGGGCGUAUGGCAACGCGGAGCCAAGCUUCGGCGCCUGCGCCGAUGAAGGUGUAGUGACUAGACGGCACCCACCUAAGGCAAACGGUAUGGUGAAGGCAUAGUCUAGGGAGUGGCGAAAGUCACACAAACCGG [C82G A120U C150G C169U],0.00456
9,GUGCCUUGCGCCGGGAAACCACGCAAGGGAUGGUGUCAAAUUCGGCGAAACCUAAGCGCCCGCCCGGGCGUAUGGCAACGCGGAGCCAAGCUUCGGCGCCUGCGCCGAUGAAGGUGUAGUGACUAGACGGCACCCACCUAAGGCAAACGGUAUGGUGAAGGCAUAGUCAAGGGAGUGGCGAAAGUCACACAAACCGG [C82G A120U C150G C169A],0.00734
10,GUGCCUUGCGCCGGGAAACCACGCAAGGGAUGGUGUCAAAUUCGGCGAAACCUAAGCGCCCGCCCGGGCGUAUGGCAACGCGGAGCCAAGCUUCGGCGCCUGCGCCGAUGAAGGUGUAGUGACUAGACGGCACCCACCUAAGGCAAACGGUAUGGUGAAGGCAUAGUCAAGGGAGAGGCGAAAGUCACACAAACCGG [C82G A120U C150G C169A U176A],0.00571
11,GUGCCUUGCGCCGGGAAACCACGCAAGGGAUGGUGUCAAAUUCGGCGAAACCUAAGCGCCCGCCCGGGCGUAUGGCAACGCGGAGCCAAGCUUCGGCGCCUGCGCCGAUGAAGGUGUAGUGACUAGACGGCACCCACCUAAGGCAAACGGUAUGGUGAAGGCAUAGUCAAGGGAGCGGCGAAAGUCACACAAACCGG [C82G A120U C150G C169A U176C],0.00402
12,GUGCCUUGCGCCGGGAAACCACGCAAGGGAUGGUGUCAAAUUCGGCGAAACCUAAGCGCCCGCCCGGGCGUAUGGCAACGCGGAGCCAAGCUUCGGCGCCUGCGCCGAUGAAGGUGUAGUGACUAGACGGCACCCACCUAAGGCAAACGGUAUGGUGAAGGCAUAGUCAAGGGAGGGGCGAAAGUCACACAAACCGG [C82G A120U C150G C169A U176G],0.00278
13,GUGCCUUGCGCCGGGAAACCACGCAAGGGAUGGUGUCAAAUUCGGCGAAACCUAAGCGCCCGCCCGGGCGUAUGGCAACGCGGAGCCAAGCUUCGGCGCCUGCGCCGAUGAAGGUGUAGUGACUAGACGGCACCCACCUAAGGCAAACGAUAUGGUGAAGGCAUAGUCUAGGGAGAGGCGAAAGUCACACAAACCGG [C82G A120U C150A C169U U176A],0.00396
14,GUGCCUUGCGCCGGGAAACCACGCAAGGGAUGGUGUCAAAUUCGGCGAAACCUAAGCGCCCGCCCGGGCGUAUGGCAACGCGGAGCCAAGCUUCGGCGCCUGCGCCGAUGAAGGUGUAGUGACUAGACGGCACCCACCUAAGGCAAACGAUAUGGUGAAGGCAUAGUCUAGGGAGCGGCGAAAGUCACACAAACCGG [C82G A120U C150A C169U U176C],0.00296
15,GUGCCUUGCGCCGGGAAACCACGCAAGGGAUGGUGUCAAAUUCGGCGAAACCUAAGCGCCCGCCCGGGCGUAUGGCAACGCGGAGCCAAGCUUCGGCGCCUGCGCCGAUGAAGGUGUAGUGACUAGACGGCACCCACCUAAGGCAAACGAUAUGGUGAAGGCAUAGUCUAGGGAGGGGCGAAAGUCACACAAACCGG [C82G A120U C150A C169U U176G],0.00185
